Source: US20230235075A1 (published 2023)

T1: Human CD93 recombinant protein (Sino Biological Inc, Catalog #12589-H08H) (human, UniProt Q9NPY3 22-580, biotinylated with EZ-LINK NHS-PEG4 biotin in the Octet assays)
T1 chain: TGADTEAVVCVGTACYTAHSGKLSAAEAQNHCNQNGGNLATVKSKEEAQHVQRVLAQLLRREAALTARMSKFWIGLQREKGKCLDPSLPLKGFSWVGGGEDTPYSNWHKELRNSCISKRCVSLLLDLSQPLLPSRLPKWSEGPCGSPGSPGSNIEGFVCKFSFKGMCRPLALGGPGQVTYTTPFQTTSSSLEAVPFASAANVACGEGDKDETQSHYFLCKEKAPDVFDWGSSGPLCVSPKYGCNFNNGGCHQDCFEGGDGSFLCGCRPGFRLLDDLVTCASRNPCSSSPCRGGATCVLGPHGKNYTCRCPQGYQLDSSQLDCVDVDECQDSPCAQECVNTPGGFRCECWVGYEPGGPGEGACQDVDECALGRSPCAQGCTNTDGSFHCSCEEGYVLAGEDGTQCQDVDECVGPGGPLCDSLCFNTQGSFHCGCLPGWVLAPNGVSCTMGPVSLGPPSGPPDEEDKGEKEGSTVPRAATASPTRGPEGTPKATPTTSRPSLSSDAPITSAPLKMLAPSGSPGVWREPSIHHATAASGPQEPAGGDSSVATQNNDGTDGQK

T2: cynomolgus CD93 protein (made in-house) (cynomolgus, UniProt A0A2K5VH53 22-580, biotinylated with EZ-LINK NHS-PEG4 biotin in the Octet assays)
T2 chain: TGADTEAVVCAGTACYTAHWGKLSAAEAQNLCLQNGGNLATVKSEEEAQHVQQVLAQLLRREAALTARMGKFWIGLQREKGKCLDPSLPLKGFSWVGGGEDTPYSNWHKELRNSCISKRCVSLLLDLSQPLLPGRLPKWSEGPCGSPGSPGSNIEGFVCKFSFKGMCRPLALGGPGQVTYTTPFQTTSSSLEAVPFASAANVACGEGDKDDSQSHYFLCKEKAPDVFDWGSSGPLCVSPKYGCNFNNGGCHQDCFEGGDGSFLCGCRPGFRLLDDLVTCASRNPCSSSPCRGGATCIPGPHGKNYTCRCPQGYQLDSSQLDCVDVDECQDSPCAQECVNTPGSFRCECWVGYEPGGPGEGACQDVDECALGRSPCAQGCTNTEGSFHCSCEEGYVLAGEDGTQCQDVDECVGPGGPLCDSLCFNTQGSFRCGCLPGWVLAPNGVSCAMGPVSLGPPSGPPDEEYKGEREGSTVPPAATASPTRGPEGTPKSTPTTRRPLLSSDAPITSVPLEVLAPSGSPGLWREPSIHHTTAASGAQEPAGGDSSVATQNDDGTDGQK


How the values were obtained:
[1] = target: T1, Human CD93 recombinant protein (Sino …); experiment: BLI (Octet)
[2] = target: T1, Human CD93 recombinant protein (Sino …); experiment: ELISA
[3] = target: T1, Human CD93 recombinant protein (Sino …); experiment: Octet
[4] = target: T1, Human CD93 recombinant protein (Sino …); experiment: ELISA
[5] = target: T1, Human CD93 recombinant protein (Sino …); experiment: ELISA
[6] = target: T1, Human CD93 recombinant protein (Sino …); experiment: Octet BLI
[7] = target: T1, Human CD93 recombinant protein (Sino …); experiment: BLI
[8] = target: T2, cynomolgus CD93 protein (made in-house); experiment: BLI
[9] = target: T1, Human CD93 recombinant protein (Sino …); experiment: ELISA; unit printed as pmM

| EC50 [2] [nM] | Kd [3] [nM] | EC50 [5] [nM] | Binder | also measured |
| --- | --- | --- | --- | --- |
|  |  |  | 10B1 (antibody, V domains shown) VH: QVQLKQSGPGLVQPSQSLSITCTVSDFSLSSFGVNWVRQPPGKGLEWLGVIWSGGSTDYNVAFISRLSISKDNSKSQVFFKMNNLQADDTAIYYCARNWRYDGYFYAMDYWGQGTSVTVSS VL: DIVMTQSQKFMSTSTGDRVSVTCKASQNVGTNVAWYQQKPGQSPKALIYSASYRFIGVPDRFTGSGSGTDFTLTITNVQSEDLAEYFCQQYNRNPITFGSGTKLEIK | Kd [1]: 0.904 nM |
| 0.0167 |  |  | recombinant parental 17B10-hFc (antibody, V domains shown) VH: QVQLQQSGPELVKPGASVKISCKASGYAFSSYWLNWVKQRPGKGLEWFGRIYPGDGDTDYNGKFKGKATLTADKSSSTAYMQLRSLTSEDSAVYFCVRGDGYWAMDYWGQGTSVTVSS VL: DIVMTQAAFSNPVTLGTSASISCRFSKSLLHSNGITYLYWYLQKPGQSPQLLIYQMSNLASGVPDRFSSSGSGTDFTLRISRVEAEDVGVYYCAQNLELPWTFGGGTKLEIK |  |
| 0.153 |  |  | 17B10 (hybridoma) (antibody, V domains shown) VH: QVQLQQSGPELVKPGASVKISCKASGYAFSSYWLNWVKQRPGKGLEWFGRIYPGDGDTDYNGKFKGKATLTADKSSSTAYMQLRSLTSEDSAVYFCVRGDGYWAMDYWGQGTSVTVSS VL: DIVMTQAAFSNPVTLGTSASISCRFSKSLLHSNGITYLYWYLQKPGQSPQLLIYQMSNLASGVPDRFSSSGSGTDFTLRISRVEAEDVGVYYCAQNLELPWTFGGGTKLEIK |  |
|  | 0.493 | 0.0667 | 7F3 (hybridoma) (antibody, V domains shown) VH: QVQLQQSGADLVRPGASVKLSCKASGYTFTDYEMHWVKQTPVYGLEWIGGIDPETGDTAYNQNFKGKATLTADKSSSAAYMELRSLTSEDSAVYYCTNYGNLYYYAMDYWGQGTSVTVSS VL: ENVLTQSPAIMSASPGEKVTMTCRASSSVSSSYLHWYQQKSGASPKLWIYSTSNLAFGVPARFSGSGSGTSYSLTISSVEAEDAATYYCQQYSGYPLTFGSGTKLEIK | EC50 [4]: 0.0667 nM; Kd [1]: 1.26 nM |
|  | 0.588 | 0.041 | 7F3-hIgG1 (antibody, V domains shown) VH: QVQLQQSGADLVRPGASVKLSCKASGYTFTDYEMHWVKQTPVYGLEWIGGIDPETGDTAYNQNFKGKATLTADKSSSAAYMELRSLTSEDSAVYYCTNYGNLYYYAMDYWGQGTSVTVSS VL: ENVLTQSPAIMSASPGEKVTMTCRASSSVSSSYLHWYQQKSGASPKLWIYSTSNLAFGVPARFSGSGSGTSYSLTISSVEAEDAATYYCQQYSGYPLTFGSGTKLEIK | Kd [6]: 0.588 nM |
|  | 0.334 | 0.112 | 16E4 (hybridoma) (antibody, V domains shown) VH: QVQLQQPGAELVKPGASVKLSCKASGYTFTSYWMHWVKQRPGQGLEWIGEIDPSASYTYYNQKFKGKATLTVDKSSSTAYMQLSSLTSEDSAVYYCARSVYYGNKYFDVWGAGTTVTVSS VL: not shown | Kd [7]: 0.447 nM; Kd [8]: 0.446 nM; EC50 [9]: 0.112 nM |
| 0.041 | 0.135 | 0.041 | 16E4-hIgG1 (antibody, V domains shown) VH: QVQLQQPGAELVKPGASVKLSCKASGYTFTSYWMHWVKQRPGQGLEWIGEIDPSASYTYYNQKFKGKATLTVDKSSSTAYMQLSSLTSEDSAVYYCARSVYYGNKYFDVWGAGTTVTVSS VL: not shown | EC50 [4]: 0.022 nM; Kd [6]: 0.135 nM |
| 0.213 |  |  | Humanized 17B10 (VH3VL3, i.e., H3L3) (antibody, V domains shown) VH: QVQLVQSGPEVKKPGESLKISCKASGYAFSSYWLNWVRQMPGKGLEWMGRIYPGDGDTDYNGKFKGQVTISADKSSGTAYLQLSSLKASDTAVYFCVRGDGYWAMDYWGQGTLVTVSS VL: DIVMTQSPDSLAVSLGERATINCRFSKSLLHSNGITYLYWYQQKPGQPPKLLIYQMSNLASGVPDRFSGSGSGTDFTLTISSLQAEDVAVYYCAQNLELPWTFGGGTKLEIK |  |
